What all share (assay): SPR
(Surface plasmon resonance follows binding to a sensor surface in real time, without labels.)

The target of assay [1] is chronic gp120 with its wild-type chronic SP (HIV-1 (subtype B)).
The target of assay [2] is chronic gp120 with the early-replicating SP (HIV-1 (subtype B)).
In assay [3] the target is early-replicating gp120 with the chronic SP (HIV-1 (subtype B)).
The target of assay [4] is early-replicating gp120 with its wild-type SP (HIV-1 (subtype B)).

Regarding “tetrameric recombinant soluble DC-SIGN (from UniProt Q9NNX6 1-404) (receptor)”, the peak response units (RU) was determined as 184 RU in assay [1], 308 RU in assay [2], 131 RU in assay [3] and 208 RU in assay [4].

Source of the values: paper PMC5877976.
